B1: IgG2, mouse monoclonal antibody against the GluN1-GluN2B NMDA receptor (antibody, V domains shown)
VH: DVKLQESGGGLVQPGGSLKLSCAASGFTFSSYTMSWVRQTPEKRLEWVAYISNGGGGTYYPDTVKGRFTISRDNAKNTLYLQMNSLKEDTAMYYCARPSRGGSSYWYFDVWGAGTTVTVSS
VL: DIQMTQSPSSLSASLGGKVTITCKASQDINKYIAWYQHKPGKGPRLLIHYTSSLQPGIPSRFSGSGSGRDYSFSISNLEPEDIATYYCLQYDNLYTFGGGTKLEIK
notes: the Fab part of the heavy chain is in the crystal structure of Fab2 (PDB 7TE4) and in the cryo-EM models; the light chain is in the crystal structure of Fab2 (PDB 7TE4) and in the cryo-EM models; mouse immunoglobulin-gamma; raised against purified intact rat GluN1a-GluN2B NMDAR; source: hybridoma cell culture supernatant, purified (rProtein-A Sepharose)
B2: Fab2, antigen-binding fragment of IgG2 (Fab, V domains shown)
VH: B1 VH
VL: B1 VL
notes: heavy chain of the crystal structure of Fab2 (PDB 7TE4); as the Fab part of the heavy chain of m1; light chain of the crystal structure of Fab2 (PDB 7TE4); as the light chain of m1; source: papain proteolysis of purified IgG2, Fc removed on rProtein-A Sepharose
B3: IgG5, mouse monoclonal antibody against the GluN1-GluN2B NMDA receptor (antibody, V domains shown)
VH: DVKLQESGGGSVKLGGSLKLSCVVSGFTFSTYYMSWVRQTPEKRLELVAVINSNGGNTYYPDNVKGRFTISRDNAENTLYLQMSSLKSEDTALYYCARRDYDGFAMDYWGQGTSVTVSS
VL: DIQLTQSPASLAVSLGQRATISCRASQSVSTSRYSYMHWYQHKPGQPPKLLIKYASNLESGVPARFSGSGSGTDFTLNIHPVEEEDTATYYCQHSWENPYTFGGGTKLEIK
notes: the Fab part of the heavy chain is in the crystal structure of GluN1b-GluN2B ATD-Fab5 (PDB 7TE6) and in the cryo-EM models; the light chain is in the crystal structure of GluN1b-GluN2B ATD-Fab5 (PDB 7TE6) and in the cryo-EM models; mouse immunoglobulin-gamma; source: hybridoma cell culture supernatant, purified (rProtein-A Sepharose)

Experiments:
[1] = biological target: T1, purified intact rat GluN1a-GluN2B NMDA receptor (Rattus norvegicus, UniProt P35439;Q00960); test: ELISA; 96-well MaxiSorp plates covered by the GluN1a-GluN2B NMDAR proteins, in the presence of 0.005% LMNG (methods; 0.01% in the results); state of the IgG not told
T1 construct: rat GluN1a (GluN1-1a splice variant, without the exon 5-encoded motif); called intact; rat GluN2B; the immunogen and the ELISA antigen

[2] = biological target: T2, intact GluN1b-GluN2B NMDA receptor (Rattus norvegicus, strain); test: cryo-EM structure; receptor mixed with Fab at 1:3 (w:w), purified on Superose 6; 1 mM glycine and 1 mM glutamate; 0.002% LMNG, 0.1% digitonin; conditions: both partners purified
T2 construct: called intact; density seen for ATD, LBD and TMD; rat GluN2B; heterotetramer; Also used here for the functional rows on receptors expressed in oocytes or HEK293 cells from wild-type rat cRNA or cDNA; also called GluN1-1b-GluN2B; GluN1b-2B; source: Sf9 insect cells (EarlyBac), solubilised in 0.5% LMNG, purified (Strep-Tactin Sepharose, Superose 6); copies: 2 + 2

Binder | binding result [1] | stoichiometry N [2]
B1 | binds | 
B2 |  | 2 Fab2 per heterotetrameric channel
B3 | binds | 
